# Source: patent EP4786492A1
# B1: Hab009VL3aVH1-hFc (scFv, part only; not given: VL-VH linker and human IgG1 Fc, V domains shown, not shown: another chain or arm of the molecule; a dimerising Fc or GST; small tags and cut ends)
# VL: DIVMTQSPLSLPVTPGEPASISCRASQTISDYLHWYLQKSHQSPQLLIKYASQSISGVPDRFSGSGSGTDFTLKISRVEAEDVGVYYCQQGHSFPLTFGQGTKLEIK
# VH: EVQLVQSGAEVKKPGASVKVSCKASGYTFTSYWMHWVRQAPGQRLEWMGTIYPGNSDTRYNQKFKDRVTITADTSASTAYMELSSLRSEDTAVYYCTRSYDYGDLDYWGQGTTVTVSS
# B2: Hab008L3H5-hFc (scFv, part only; not given: scFv linker and human IgG1 Fc, V domains shown, not shown: another chain or arm of the molecule; a dimerising Fc or GST; small tags and cut ends)
# VL: DIVMTQSPDSLAVSLGERATINCKASQNVGTAVAWYQQKPGQSPKLLIFSASIRYTGVPDRFSGSGSGTDFTLTISSLQAEDVAVYYCQQYSSSPYTFGGGTKVEIK
# VH: EVQLVQSGAEVKKPGASVKVSCKASGYTFTDYYMNWVRRAPGQRLEWMGIINPYNGGTSYNQKFRGRVTITVDKSASTAYMELSSLRSEDTAVYYCSRYDYDYDVEGAMDYWGQGTTVTVSS
# B3: Hab013VL2VH2a-hFc (scFv, part only; not given: scFv linker and human IgG1 Fc, V domains shown, not shown: another chain or arm of the molecule; a dimerising Fc or GST; small tags and cut ends)
# VL: EIVLTQSPATLSLSPGERATLSCRASKSVSTSGFSYMHWYQQKPGQPPRLLIYLASNLESGIPARFSGSGSGTDFTLTISSLEPEDFAVYYCQHSRELPFTFGQGTKLEIK
# VH: EVQLVQSGAEVKKPGSSVKVSCKASGYAFSNYWINWVRQAPGQGLEWMGQINPGDGDTIYNSKFKGRVTITADKSTSTAYMELSSLRSEDTAVYYCEREGRNYGDFAYWGQGTTVTVSS
# What was measured:
# [1] = target: mouse DLL3 on CHO-K1-mDLL3 cells (mouse) (UniProt O88516); assay: FACS, CHO-K1-mDLL3 cells, 4 nM antibody
# [2] = target: monkey DLL3 on CHO-K1-cyno DLL3 cells (cynomolgus monkey); assay: FACS, CHO-K1-cyno DLL3 cells, 0.032 nM antibody
# [3] = target: DLL3 endogenously expressed on NCI-H82 cells (UniProt Q9NYJ7); assay: FACS on NCI-H82 cells; antibody 0.8 nM
# [4] = target: monkey DLL3 on CHO-K1-cyno DLL3 cells (cynomolgus monkey); assay: FACS, CHO-K1-cyno DLL3 cells, 100 nM antibody
# [5] = target: DLL3 endogenously expressed on NCI-H82 cells (UniProt Q9NYJ7); assay: FACS on NCI-H82 cells; antibody 20 nM
# [6] = target: monkey DLL3 on CHO-K1-cyno DLL3 cells (cynomolgus monkey); assay: FACS, CHO-K1-cyno DLL3 cells, 0.8 nM antibody
# [7] = target: DLL3 endogenously expressed on NCI-H82 cells (UniProt Q9NYJ7); assay: FACS on NCI-H82 cells; antibody 0.032 nM
# [8] = target: monkey DLL3 on CHO-K1-cyno DLL3 cells (cynomolgus monkey); assay: FACS, CHO-K1-cyno DLL3 cells, 4 nM antibody
# [9] = target: DLL3 endogenously expressed on NCI-H82 cells (UniProt Q9NYJ7); assay: FACS on NCI-H82 cells; antibody 0.0064 nM
# [10] = target: monkey DLL3 on CHO-K1-cyno DLL3 cells (cynomolgus monkey); assay: FACS, CHO-K1-cyno DLL3 cells, 0.16 nM antibody
# [11] = target: human DLL4 protein (Acro, Cat. No. DL4-H5227) (human) (UniProt Q9NR61); assay: ELISA, coated hDLL4; maximum over 0.1, 1, 10, 100 nM antibody
# [12] = target: human DLL3 protein (extracellular segment, His tag) (human) (UniProt Q9NYJ7); assay: SPR (Biacore 8K), antibody captured on Protein A chip, DLL3 antigen in solution, 1:1 Langmuir fit
# [13] = target: monkey DLL3 on CHO-K1-cyno DLL3 cells (cynomolgus monkey); assay: FACS, CHO-K1-cyno DLL3 cells, 0.0064 nM antibody
# [14] = target: mouse DLL3 on CHO-K1-mDLL3 cells (mouse) (UniProt O88516); assay: FACS, CHO-K1-mDLL3 cells, 0.8 nM antibody
# [15] = target: mouse DLL3 on CHO-K1-mDLL3 cells (mouse) (UniProt O88516); assay: FACS, CHO-K1-mDLL3 cells, 0.032 nM antibody
# [16] = target: mouse DLL3 on CHO-K1-mDLL3 cells (mouse) (UniProt O88516); assay: FACS, CHO-K1-mDLL3 cells, 0.16 nM antibody
# [17] = target: DLL3 endogenously expressed on NCI-H82 cells (UniProt Q9NYJ7); assay: FACS on NCI-H82 cells; antibody 0.00128 nM
# [18] = target: mouse DLL3 on CHO-K1-mDLL3 cells (mouse) (UniProt O88516); assay: FACS, CHO-K1-mDLL3 cells, 0.00128 nM antibody
# [19] = target: mouse DLL3 on CHO-K1-mDLL3 cells (mouse) (UniProt O88516); assay: FACS, CHO-K1-mDLL3 cells, 0.0064 nM antibody
# [20] = target: DLL3 endogenously expressed on NCI-H82 cells (UniProt Q9NYJ7); assay: FACS on NCI-H82 cells; antibody 0.16 nM
# [21] = target: monkey DLL3 on CHO-K1-cyno DLL3 cells (cynomolgus monkey); assay: FACS, CHO-K1-cyno DLL3 cells, 20 nM antibody
# [22] = target: mouse DLL3 on CHO-K1-mDLL3 cells (mouse) (UniProt O88516); assay: FACS, CHO-K1-mDLL3 cells, 100 nM antibody
# [23] = target: DLL3 endogenously expressed on NCI-H82 cells (UniProt Q9NYJ7); assay: FACS on NCI-H82 cells; antibody 4 nM
# [24] = target: human DLL1 protein (Acro, Cat. No. DL1-H52H8) (human) (UniProt O00548); assay: ELISA, coated hDLL1; maximum over 0.1, 1, 10, 100 nM antibody
# [25] = target: DLL3 endogenously expressed on NCI-H82 cells (UniProt Q9NYJ7); assay: FACS on NCI-H82 cells; antibody 100 nM
# [26] = target: monkey DLL3 on CHO-K1-cyno DLL3 cells (cynomolgus monkey); assay: FACS, CHO-K1-cyno DLL3 cells, 0.00128 nM antibody
# [27] = target: mouse DLL3 on CHO-K1-mDLL3 cells (mouse) (UniProt O88516); assay: FACS, CHO-K1-mDLL3 cells, 20 nM antibody
# [28] = target: human DLL3 protein expressed on CHO-K1 recombinant cells (human DLL3 extracellular segment fused to EpCAM transmembrane and intracellular regions) (human) (UniProt Q9NYJ7); assay: FACS, CHO-K1 hDLL3 cells, 4 nM antibody
# [29] = target: human DLL3 protein expressed on CHO-K1 recombinant cells (human DLL3 extracellular segment fused to EpCAM transmembrane and intracellular regions) (human) (UniProt Q9NYJ7); assay: FACS, CHO-K1 hDLL3 cells, 0.00128 nM antibody
# [30] = target: human delta-like ligand 3 (DLL3) on SHP77 cells (human) (UniProt Q9NYJ7); assay: FACS on SHP77 cells
# [31] = target: human DLL3 protein expressed on CHO-K1 recombinant cells (human DLL3 extracellular segment fused to EpCAM transmembrane and intracellular regions) (human) (UniProt Q9NYJ7); assay: FACS, CHO-K1 hDLL3 cells, 0.0064 nM antibody
# [32] = target: human DLL3 protein expressed on CHO-K1 recombinant cells (human DLL3 extracellular segment fused to EpCAM transmembrane and intracellular regions) (human) (UniProt Q9NYJ7); assay: FACS, CHO-K1 hDLL3 cells, 0.8 nM antibody
# [33] = target: human DLL3 protein expressed on CHO-K1 recombinant cells (human DLL3 extracellular segment fused to EpCAM transmembrane and intracellular regions) (human) (UniProt Q9NYJ7); assay: FACS, CHO-K1 hDLL3 cells, 0.16 nM antibody
# [34] = target: human DLL3 protein expressed on CHO-K1 recombinant cells (human DLL3 extracellular segment fused to EpCAM transmembrane and intracellular regions) (human) (UniProt Q9NYJ7); assay: FACS, CHO-K1 hDLL3 cells, 100 nM antibody
# [35] = target: human DLL3 protein expressed on CHO-K1 recombinant cells (human DLL3 extracellular segment fused to EpCAM transmembrane and intracellular regions) (human) (UniProt Q9NYJ7); assay: FACS, CHO-K1 hDLL3 cells, 0.032 nM antibody
# [36] = target: human DLL3 protein expressed on CHO-K1 recombinant cells (human DLL3 extracellular segment fused to EpCAM transmembrane and intracellular regions) (human) (UniProt Q9NYJ7); assay: FACS, CHO-K1 hDLL3 cells, 20 nM antibody
# Sequence of human DLL3 protein expressed on CHO-K1 recombinant cells (human DLL3 extracellular segment fused to EpCAM transmembrane and intracellular regions) (human) (Q9NYJ7 other isoform, or with tags, fused parts or gaps limits assumed): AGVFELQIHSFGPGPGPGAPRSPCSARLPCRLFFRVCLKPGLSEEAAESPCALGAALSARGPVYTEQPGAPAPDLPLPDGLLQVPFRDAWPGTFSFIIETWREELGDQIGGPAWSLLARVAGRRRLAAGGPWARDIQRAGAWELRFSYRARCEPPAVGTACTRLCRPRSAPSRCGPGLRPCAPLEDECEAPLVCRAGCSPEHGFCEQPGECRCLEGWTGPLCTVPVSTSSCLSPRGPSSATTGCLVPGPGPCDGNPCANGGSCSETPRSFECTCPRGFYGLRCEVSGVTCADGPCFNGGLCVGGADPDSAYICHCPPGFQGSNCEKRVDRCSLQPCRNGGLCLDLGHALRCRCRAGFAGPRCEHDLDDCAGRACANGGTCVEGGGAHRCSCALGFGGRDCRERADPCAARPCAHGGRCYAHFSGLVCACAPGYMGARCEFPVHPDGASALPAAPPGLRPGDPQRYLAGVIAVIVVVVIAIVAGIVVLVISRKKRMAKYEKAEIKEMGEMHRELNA
# Sequence of mouse DLL3 on CHO-K1-mDLL3 cells (mouse) (O88516 other isoform, or with tags, fused parts or gaps limits assumed): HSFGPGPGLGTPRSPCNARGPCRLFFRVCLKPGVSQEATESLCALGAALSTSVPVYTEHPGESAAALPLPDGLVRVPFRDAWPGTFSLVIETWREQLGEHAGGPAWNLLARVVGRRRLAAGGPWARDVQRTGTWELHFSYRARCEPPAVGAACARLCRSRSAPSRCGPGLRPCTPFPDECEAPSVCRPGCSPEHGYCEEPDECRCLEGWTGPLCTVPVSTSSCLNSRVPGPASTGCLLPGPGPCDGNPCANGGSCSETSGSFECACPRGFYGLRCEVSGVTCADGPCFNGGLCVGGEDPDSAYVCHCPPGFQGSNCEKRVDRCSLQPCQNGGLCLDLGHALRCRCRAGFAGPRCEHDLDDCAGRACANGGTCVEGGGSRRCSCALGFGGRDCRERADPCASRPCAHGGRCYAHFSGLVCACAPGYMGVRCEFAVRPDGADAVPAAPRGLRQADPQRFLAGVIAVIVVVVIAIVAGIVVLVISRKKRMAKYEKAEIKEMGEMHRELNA
# Sequence of monkey DLL3 on CHO-K1-cyno DLL3 cells (cynomolgus monkey) (chain, as listed by the source limits assumed): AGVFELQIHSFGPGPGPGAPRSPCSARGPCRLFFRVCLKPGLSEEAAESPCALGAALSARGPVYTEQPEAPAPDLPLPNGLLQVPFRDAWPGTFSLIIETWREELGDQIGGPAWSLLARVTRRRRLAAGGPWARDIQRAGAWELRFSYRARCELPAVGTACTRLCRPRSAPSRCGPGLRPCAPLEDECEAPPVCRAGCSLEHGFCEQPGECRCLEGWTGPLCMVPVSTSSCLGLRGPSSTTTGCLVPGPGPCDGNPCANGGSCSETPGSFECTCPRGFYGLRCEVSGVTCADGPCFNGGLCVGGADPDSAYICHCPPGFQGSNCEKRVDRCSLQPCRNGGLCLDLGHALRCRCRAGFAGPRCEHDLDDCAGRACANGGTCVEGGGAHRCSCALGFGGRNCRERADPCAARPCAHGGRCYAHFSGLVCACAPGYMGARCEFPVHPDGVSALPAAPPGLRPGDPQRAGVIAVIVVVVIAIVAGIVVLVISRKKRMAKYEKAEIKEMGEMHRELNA
# Sequence of human DLL4 protein (Acro, Cat. No. DL4-H5227) (human) (Q9NR61 27-524 limits assumed): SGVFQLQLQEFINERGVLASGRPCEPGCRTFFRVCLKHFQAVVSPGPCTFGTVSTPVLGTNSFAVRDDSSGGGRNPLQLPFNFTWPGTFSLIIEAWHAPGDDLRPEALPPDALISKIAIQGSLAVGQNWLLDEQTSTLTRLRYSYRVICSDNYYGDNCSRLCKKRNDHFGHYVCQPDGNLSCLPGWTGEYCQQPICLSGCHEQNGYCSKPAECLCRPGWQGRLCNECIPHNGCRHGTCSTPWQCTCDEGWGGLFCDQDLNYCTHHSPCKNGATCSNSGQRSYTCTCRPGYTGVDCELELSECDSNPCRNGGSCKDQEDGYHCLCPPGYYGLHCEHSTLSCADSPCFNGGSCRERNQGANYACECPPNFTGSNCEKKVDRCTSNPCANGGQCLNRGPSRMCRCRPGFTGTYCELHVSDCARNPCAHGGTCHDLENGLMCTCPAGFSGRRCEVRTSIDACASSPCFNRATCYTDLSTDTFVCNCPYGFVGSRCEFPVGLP
# Sequence of human delta-like ligand 3 (DLL3) on SHP77 cells (human) (Q9NYJ7 27-618, stated change not applied): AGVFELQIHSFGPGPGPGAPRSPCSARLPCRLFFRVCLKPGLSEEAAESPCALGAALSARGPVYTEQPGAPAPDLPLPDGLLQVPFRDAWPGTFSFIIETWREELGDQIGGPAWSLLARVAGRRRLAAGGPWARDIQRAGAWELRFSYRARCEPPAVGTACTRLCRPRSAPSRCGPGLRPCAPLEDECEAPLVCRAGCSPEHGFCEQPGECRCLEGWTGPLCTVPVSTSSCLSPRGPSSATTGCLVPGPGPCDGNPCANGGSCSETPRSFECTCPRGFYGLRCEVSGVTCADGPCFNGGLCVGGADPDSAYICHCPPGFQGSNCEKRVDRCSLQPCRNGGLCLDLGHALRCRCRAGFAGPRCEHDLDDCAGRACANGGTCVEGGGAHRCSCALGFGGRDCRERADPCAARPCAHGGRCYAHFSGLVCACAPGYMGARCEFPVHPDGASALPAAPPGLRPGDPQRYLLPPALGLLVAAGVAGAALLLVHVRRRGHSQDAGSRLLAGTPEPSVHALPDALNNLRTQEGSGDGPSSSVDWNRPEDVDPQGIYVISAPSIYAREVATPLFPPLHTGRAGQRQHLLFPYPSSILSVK
# Sequence of DLL3 endogenously expressed on NCI-H82 cells (Q9NYJ7 27-618): as the sequence (Q9NYJ7 27-618, stated change not applied) above
# Sequence of human DLL3 protein (extracellular segment, His tag) (human) (Q9NYJ7 27-492): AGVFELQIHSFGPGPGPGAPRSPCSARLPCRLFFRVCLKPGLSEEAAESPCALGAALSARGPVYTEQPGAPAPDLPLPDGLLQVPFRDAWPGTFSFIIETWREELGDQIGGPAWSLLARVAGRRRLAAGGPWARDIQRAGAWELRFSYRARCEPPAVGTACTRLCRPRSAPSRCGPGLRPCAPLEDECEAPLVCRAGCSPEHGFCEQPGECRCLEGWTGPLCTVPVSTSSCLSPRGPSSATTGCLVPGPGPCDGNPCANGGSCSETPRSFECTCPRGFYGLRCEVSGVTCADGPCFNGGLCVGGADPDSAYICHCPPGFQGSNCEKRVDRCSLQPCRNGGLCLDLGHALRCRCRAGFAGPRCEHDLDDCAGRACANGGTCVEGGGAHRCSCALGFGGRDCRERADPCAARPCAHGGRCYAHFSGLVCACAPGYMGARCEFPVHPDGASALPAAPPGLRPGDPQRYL
# Sequence of human DLL1 protein (Acro, Cat. No. DL1-H52H8) (human) (O00548 18-540 limits assumed): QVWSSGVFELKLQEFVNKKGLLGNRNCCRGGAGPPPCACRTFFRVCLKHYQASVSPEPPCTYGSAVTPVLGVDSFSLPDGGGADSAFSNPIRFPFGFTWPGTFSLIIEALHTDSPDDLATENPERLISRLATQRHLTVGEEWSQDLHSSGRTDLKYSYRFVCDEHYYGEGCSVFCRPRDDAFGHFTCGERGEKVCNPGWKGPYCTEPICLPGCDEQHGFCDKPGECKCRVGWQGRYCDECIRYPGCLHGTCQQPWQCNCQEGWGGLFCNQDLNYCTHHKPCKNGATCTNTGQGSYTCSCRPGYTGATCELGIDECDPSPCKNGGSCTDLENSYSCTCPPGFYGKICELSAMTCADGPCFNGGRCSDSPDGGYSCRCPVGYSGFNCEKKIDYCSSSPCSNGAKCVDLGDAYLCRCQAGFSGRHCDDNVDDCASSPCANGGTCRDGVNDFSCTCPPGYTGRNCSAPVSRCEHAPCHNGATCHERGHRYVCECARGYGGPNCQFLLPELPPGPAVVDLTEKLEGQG
binder,measurement,setting,value
B1,MFI,[1],458 MFI
same,MFI,[2],4020 MFI
same,MFI,[3],709
same,MFI,[4],29600 MFI
same,MFI,[5],796
same,MFI,[6],24700 MFI
same,MFI,[7],371
same,MFI,[8],30000 MFI
same,MFI,[9],179
same,MFI,[10],10600 MFI
same,Emax of OD450 nm binding value,[11],0.06 OD450 nm
same,Kd,[12],0.304 nM
same,koff,[12],0.00175 s⁻¹
same,kon,[12],5.76e+06 M⁻¹ s⁻¹
same,MFI,[13],3760 MFI
same,MFI,[14],413 MFI
same,MFI,[15],287 MFI
same,MFI,[16],345 MFI
same,MFI,[17],123
same,MFI,[18],190 MFI
same,MFI,[19],269 MFI
same,MFI,[20],669
same,MFI,[21],30000 MFI
same,MFI,[22],553 MFI
same,MFI,[23],738
same,Emax of OD450 nm binding value,[24],0.06 OD450 nm
same,MFI,[25],872
same,MFI,[26],1450 MFI
same,MFI,[27],491 MFI
B2,MFI,[28],7140 MFI
same,MFI,[29],100 MFI
same,MFI at 0.00128 nM,[30],117 MFI
same,MFI at 0.0064 nM,[30],117 MFI
same,MFI at 0.032 nM,[30],122 MFI
same,MFI at 0.16 nM,[30],133 MFI
same,MFI at 0.8 nM,[30],194 MFI
same,MFI at 4 nM,[30],330 MFI
same,MFI at 20 nM,[30],634 MFI
same,MFI at 100 nM,[30],974 MFI
same,MFI,[2],252 MFI
same,MFI,[31],131 MFI
same,MFI,[3],152
same,MFI,[4],21600 MFI
same,MFI,[32],2370 MFI
same,MFI,[5],674
same,MFI,[6],3470 MFI
same,MFI,[7],91
same,MFI,[8],12900 MFI
same,MFI,[9],90
same,MFI,[10],724 MFI
same,Emax of OD450 nm binding value,[11],0.18 OD450 nm
same,Kd,[12],0.902 nM
same,koff,[12],0.000312 s⁻¹
same,kon,[12],345000 M⁻¹ s⁻¹
same,MFI,[13],142 MFI
same,MFI,[33],671 MFI
same,MFI,[34],8950 MFI
same,MFI,[35],235 MFI
same,MFI,[36],8320 MFI
same,MFI,[17],99
same,MFI,[20],102
same,MFI,[21],20300 MFI
same,MFI,[23],388
same,Emax of OD450 nm binding value,[24],0.11 OD450 nm
same,MFI,[25],1340
same,MFI,[26],103 MFI
B3,MFI,[28],14900 MFI
same,MFI,[29],164 MFI
same,MFI at 0.00128 nM,[30],116 MFI
same,MFI at 0.0064 nM,[30],131 MFI
same,MFI at 0.032 nM,[30],183 MFI
same,MFI at 0.16 nM,[30],323 MFI
same,MFI at 0.8 nM,[30],541 MFI
same,MFI at 4 nM,[30],719 MFI
same,MFI at 20 nM,[30],876 MFI
same,MFI at 100 nM,[30],1140 MFI
same,MFI,[1],557 MFI
same,MFI,[31],270 MFI
same,MFI,[3],831
same,MFI,[32],11200 MFI
same,MFI,[5],1170
same,MFI,[7],356
same,MFI,[9],185
same,Emax of OD450 nm binding value,[11],0.05 OD450 nm
same,Kd,[12],0.112 nM
same,koff,[12],0.000371 s⁻¹
same,kon,[12],3.32e+06 M⁻¹ s⁻¹
same,MFI,[14],463 MFI
same,MFI,[33],3190 MFI
same,MFI,[34],19500 MFI
same,MFI,[15],179 MFI
same,MFI,[35],789 MFI
same,MFI,[36],16300 MFI
same,MFI,[16],313 MFI
same,MFI,[17],130
same,MFI,[18],113 MFI
same,MFI,[19],125 MFI
same,MFI,[20],670
same,MFI,[22],764 MFI
same,MFI,[23],1030
same,Emax of OD450 nm binding value,[24],0.05 OD450 nm
same,MFI,[25],1520
same,MFI,[27],655 MFI
